In paper PMC9668737, “Herpes simplex virus 1 protein pUL21 alters ceramide metabolism by activating the interorganelle transport protein CERT” (The Journal of Biological Chemistry, 2022):
Values joined by “and” are separate entries in the source; they are usually repeats but may differ in a detail not shown here. Equal entries are not always repeated.

T1: pUL21-H6 (HSV-1 pUL21) (herpes simplex virus 1, UniProt F8RG07 1-535)
T1 construct: tegument protein pUL21 of herpes simplex virus 1, UniProt F8RG07; source: E. coli T7 Express lysY/Iq, purified (Ni-NTA, SEC); not shown: His6, C-terminal, kept
T1 sequence: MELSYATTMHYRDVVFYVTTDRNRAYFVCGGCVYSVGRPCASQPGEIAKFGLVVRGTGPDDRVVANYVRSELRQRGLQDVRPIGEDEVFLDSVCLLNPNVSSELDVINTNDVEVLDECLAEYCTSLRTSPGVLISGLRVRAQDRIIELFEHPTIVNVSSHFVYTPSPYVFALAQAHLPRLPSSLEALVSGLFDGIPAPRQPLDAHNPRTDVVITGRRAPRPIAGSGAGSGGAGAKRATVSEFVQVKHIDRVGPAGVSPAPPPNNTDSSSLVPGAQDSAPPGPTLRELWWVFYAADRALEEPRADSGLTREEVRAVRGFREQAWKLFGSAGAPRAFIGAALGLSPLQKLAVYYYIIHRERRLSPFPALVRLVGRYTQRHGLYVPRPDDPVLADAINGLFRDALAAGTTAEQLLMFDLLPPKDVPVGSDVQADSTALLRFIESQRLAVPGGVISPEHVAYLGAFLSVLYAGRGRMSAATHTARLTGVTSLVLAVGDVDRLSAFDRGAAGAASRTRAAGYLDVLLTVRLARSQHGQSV

T2: StrepII-CERT^P (UniProt Q9Y5P4-2 1-598, hyperphosphorylated (sites not given))
T2 sequence (looked up): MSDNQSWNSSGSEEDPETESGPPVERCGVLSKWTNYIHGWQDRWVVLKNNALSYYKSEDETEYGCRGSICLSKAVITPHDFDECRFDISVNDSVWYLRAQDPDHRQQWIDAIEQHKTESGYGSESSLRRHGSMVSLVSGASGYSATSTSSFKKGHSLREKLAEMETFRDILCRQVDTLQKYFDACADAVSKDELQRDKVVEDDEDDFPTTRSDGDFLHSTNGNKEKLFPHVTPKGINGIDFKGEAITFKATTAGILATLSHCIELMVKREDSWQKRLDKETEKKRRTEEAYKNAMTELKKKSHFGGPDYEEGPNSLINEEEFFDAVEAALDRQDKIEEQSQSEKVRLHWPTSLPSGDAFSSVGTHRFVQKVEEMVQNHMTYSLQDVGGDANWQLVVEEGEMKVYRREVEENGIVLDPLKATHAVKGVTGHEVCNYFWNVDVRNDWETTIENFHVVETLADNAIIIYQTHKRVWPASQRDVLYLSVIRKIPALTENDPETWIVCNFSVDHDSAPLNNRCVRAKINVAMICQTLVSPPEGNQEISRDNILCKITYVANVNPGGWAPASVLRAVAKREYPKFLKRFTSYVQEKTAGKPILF


What was measured:
pUL21-H6 (HSV-1 pUL21) = target: T1, pUL21-H6 (HSV-1 pUL21); assay: ITC; CERTL forms in the syringe titrated into pUL21 forms in the cell; 25 °C; 20 mM Tris pH 8.5, 500 mM NaCl, 0.5 mM TCEP; one-site binding model; single titrations; details: both partners purified
StrepII-CERT^P = target: T2, StrepII-CERT^P; assay: cell-based or functional assay

| Binder | stoichiometry N (pUL21-H6 (HSV-1 pUL21)) | EC50 of pUL21^V382E-H6 (62.5 nM to 4 μM) for accelerating GST-PP1-mediated dephosphorylation of 0.5 μM CERT^P in vitro, all proteins purified, 25 nM GST-PP1γ, 30 min at 30 °C (StrepII-CERT^P) [μM] |
| --- | --- | --- |
| StrepII-CERTL^P (hyperphosphorylated human CERTL) (natural protein, UniProt Q9Y5P4-1 1-624, looked up, hyperphosphorylated (CERTL^P); sites not given, ceramide transport protein CERT, longer cytoplasmic isoform CERTL (with exon 11), human, UniProt Q9Y5P4-1; not shown: StrepII, N-terminal, kept) MSDNQSWNSSGSEEDPETESGPPVERCGVLSKWTNYIHGWQDRWVVLKNNALSYYKSEDETEYGCRGSICLSKAVITPHDFDECRFDISVNDSVWYLRAQDPDHRQQWIDAIEQHKTESGYGSESSLRRHGSMVSLVSGASGYSATSTSSFKKGHSLREKLAEMETFRDILCRQVDTLQKYFDACADAVSKDELQRDKVVEDDEDDFPTTRSDGDFLHSTNGNKEKLFPHVTPKGINGIDFKGEAITFKATTAGILATLSHCIELMVKREDSWQKRLDKETEKKRRTEEAYKNAMTELKKKSHFGGPDYEEGPNSLINEEEFFDAVEAALDRQDKIEEQSQSEKVRLHWPTSLPSGDAFSSVGTHRFVQKPYSRSSSMSSIDLVSASDDVHRFSSQVEEMVQNHMTYSLQDVGGDANWQLVVEEGEMKVYRREVEENGIVLDPLKATHAVKGVTGHEVCNYFWNVDVRNDWETTIENFHVVETLADNAIIIYQTHKRVWPASQRDVLYLSVIRKIPALTENDPETWIVCNFSVDHDSAPLNNRCVRAKINVAMICQTLVSPPEGNQEISRDNILCKITYVANVNPGGWAPASVLRAVAKREYPKFLKRFTSYVQEKTAGKPILF | 0.76 and 0.72 and 0.74 | – |
| StrepII-CERTL^S132A (constitutively hypophosphorylated human CERTL) (natural protein, UniProt Q9Y5P4-1 1-624, looked up, ceramide transport protein CERT, longer cytoplasmic isoform CERTL, human, UniProt Q9Y5P4-1, with S132A; source: Freestyle 293F cells, stably transfected, doxycycline-induced, purified (StrepTrap, SEC); not shown: StrepII, N-terminal, kept) MSDNQSWNSSGSEEDPETESGPPVERCGVLSKWTNYIHGWQDRWVVLKNNALSYYKSEDETEYGCRGSICLSKAVITPHDFDECRFDISVNDSVWYLRAQDPDHRQQWIDAIEQHKTESGYGSESSLRRHGAMVSLVSGASGYSATSTSSFKKGHSLREKLAEMETFRDILCRQVDTLQKYFDACADAVSKDELQRDKVVEDDEDDFPTTRSDGDFLHSTNGNKEKLFPHVTPKGINGIDFKGEAITFKATTAGILATLSHCIELMVKREDSWQKRLDKETEKKRRTEEAYKNAMTELKKKSHFGGPDYEEGPNSLINEEEFFDAVEAALDRQDKIEEQSQSEKVRLHWPTSLPSGDAFSSVGTHRFVQKPYSRSSSMSSIDLVSASDDVHRFSSQVEEMVQNHMTYSLQDVGGDANWQLVVEEGEMKVYRREVEENGIVLDPLKATHAVKGVTGHEVCNYFWNVDVRNDWETTIENFHVVETLADNAIIIYQTHKRVWPASQRDVLYLSVIRKIPALTENDPETWIVCNFSVDHDSAPLNNRCVRAKINVAMICQTLVSPPEGNQEISRDNILCKITYVANVNPGGWAPASVLRAVAKREYPKFLKRFTSYVQEKTAGKPILF | 0.93 and 1.01 | – |
| pUL21^V382E-H6 (natural protein) MELSYATTMHYRDVVFYVTTDRNRAYFVCGGCVYSVGRPCASQPGEIAKFGLVVRGTGPDDRVVANYVRSELRQRGLQDVRPIGEDEVFLDSVCLLNPNVSSELDVINTNDVEVLDECLAEYCTSLRTSPGVLISGLRVRAQDRIIELFEHPTIVNVSSHFVYTPSPYVFALAQAHLPRLPSSLEALVSGLFDGIPAPRQPLDAHNPRTDVVITGRRAPRPIAGSGAGSGGAGAKRATVSEFVQVKHIDRVGPAGVSPAPPPNNTDSSSLVPGAQDSAPPGPTLRELWWVFYAADRALEEPRADSGLTREEVRAVRGFREQAWKLFGSAGAPRAFIGAALGLSPLQKLAVYYYIIHRERRLSPFPALVRLVGRYTQRHGLYEPRPDDPVLADAINGLFRDALAAGTTAEQLLMFDLLPPKDVPVGSDVQADSTALLRFIESQRLAVPGGVISPEHVAYLGAFLSVLYAGRGRMSAATHTARLTGVTSLVLAVGDVDRLSAFDRGAAGAASRTRAAGYLDVLLTVRLARSQHGQSV | – | 3.33 |
